From patent US20250197448A1 (UNIVERSITY OF ROCHESTER, published 2025) come the findings set out here.

Test [1] deals with T1, streptavidin (UniProt P22629 37-163, limits assumed). The test can be described thus: plate binding assay: streptavidin-coated plate, FLAG-tagged binder titrated, HRP anti-FLAG detection, 1:1 isotherm fit. An excerpt:
The resulting cyclopeptibody (called Strep-m3-Tras-Fc) was expressed, purified, and characterized as described in Example 4. This construct was confirmed to contain the cyclic peptide constrained via O2beY/Cys thioether (i/i-8) linkage, where ‘i’ indicates the position of the non-canonical amino acid O2beY (also refereed to herein as p-2beF). The cyclopeptibody Strep-m3-Tras-Fc was then characterized for its streptavidin binding affinity using a reported in vitro binding assay (Owens et al, ACS Cent Sci. (2020); 6(3):368-381).
Streptavidin Binding Assay. For the streptavidin binding assays, streptavidin-coated plates (Sigma-Aldrich) were used. […] After washing three times with wash buffer, 100 μL of 2.2 mM o-phenylenediamine dihydrochloride, 4.2 mM urea hydrogen peroxide, 100 mM dibasic sodium phosphate, and 50 mM sodium citrate, pH 5.0, were added to each well, followed by measurement of the absorbance at 450 nm after 10-20 min using a Tecan Infinite 1000 plate reader. Equilibrium dissociation constants (Kp) were determined by fitting the dose-response curves to a 1:1 binding isotherm equation via nonlinear regression. using SigmaPlot. Mean values and standard deviations were calculated from experiments performed in triplicate.

The target in test [2] is T2, PD-L1 (Programmed Death-Ligand 1), recombinant, His-tagged (human, UniProt Q9NZQ7 18-134, limits assumed).
T2 construct: Immobilised on microtiter plates
T2 sequence (Q9NZQ7 18-134 limits assumed): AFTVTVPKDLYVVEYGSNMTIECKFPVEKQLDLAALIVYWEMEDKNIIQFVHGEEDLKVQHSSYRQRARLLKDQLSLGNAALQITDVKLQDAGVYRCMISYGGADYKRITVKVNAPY
The test can be described thus: plate binding assay with immobilised PD-L1. As for the experimental part:
After washing (3×150 μL of PBS with 0.05% Tween-20), each well was incubated with 100 μL of purified FLAG-tagged cyclopeptibody at varying concentrations for 1 hour at room temperature. After washing three times with wash buffer, each well was incubated with 100 μL of 1:2500 dilution of HRP-conjugate mouse anti-FLAG polyclonal antibody (Sigma-Aldrich) for 1 hour at room temperature. After washing three times with wash buffer, 100 μL of 2.2 mM o-phenylenediamine dihydrochloride, 4.2 mM urea hydrogen peroxide, 100 mM dibasic sodium phosphate, and 50 mM sodium citrate, pH 5.0, were added to each well, followed by measurement of the absorbance at 450 nm after 10-20 min using a Tecan Infinite 1000 plate reader. Equilibrium dissociation constants (Kp) were determined by fitting the dose-response curves to a 1:1 binding isotherm equation via nonlinear regression. using SigmaPlot. Mean values and standard deviations were calculated from experiments performed in triplicate.
To illustrate this aspect of the invention, a series of PD-L1 targeting cyclopeptibodies were prepared by introducing variable spacer sequences between the cyclic peptide and Fc domain in the PD-L1-targeting cyclopeptibody cRK10-Tras-Fc (Table 1, Entries 31-34; FIG. 20). The spacer sequences included a more flexible (-GSGSGS-), more rigid (-PAPAP-; -EAAAK-) or longer linker (Q12) compared to the exa-glutamine (Q6) spacer sequence in cyclopeptibody cRK10-Tras-Fc.

Test [3] deals with T3, Kelch-like ECH-associated protein 1 (Keap1) (human, UniProt Q14145 321-609, limits assumed). As to the kind of experiment: plate binding assay with immobilised Keap1. As for the experimental part: Keap1 Binding Assay. For the Keap1 binding assay, Keap1 was immobilized on microtiter plates by incubating 100 μL of a 4 μM protein solution in PBS buffer overnight at 4° C., followed by washing (3×150 μL of PBS with 0.5% Tween-20) and blocking with 0.5% bovine serum albumin in PBS for 1.5 h at room temperature. After washing, each well was incubated with 100 μL of purified FLAG-tagged peptide at varying concentrations for 1 hour at room temperature. After washing three times with wash buffer, each well was incubated with 100 μL of 1:2500 dilution of HRP-conjugate mouse anti-FLAG polyclonal antibody (Sigma-Aldrich) for 1 hour at room temperature. After three washing steps with wash buffer, 100 μL of 2.2 mM o-phenylenediamine dihydrochloride, 4.2 mM urea hydrogen peroxide, 100 mM dibasic sodium phosphate, and 50 mM sodium citrate, pH 5.0, were added to each well, followed by measurement of the absorbance at 450 nm after 10-20 min using a Tecan Infinite 1000 plate reader. Equilibrium dissociation constants (KD) were determined by fitting the dose-response curves to a 1:1 binding isotherm equation via nonlinear regression using SigmaPlot. Mean values and standard deviations were calculated from experiments performed in triplicate. […]
T3 sequence (Q14145 321-609 limits assumed): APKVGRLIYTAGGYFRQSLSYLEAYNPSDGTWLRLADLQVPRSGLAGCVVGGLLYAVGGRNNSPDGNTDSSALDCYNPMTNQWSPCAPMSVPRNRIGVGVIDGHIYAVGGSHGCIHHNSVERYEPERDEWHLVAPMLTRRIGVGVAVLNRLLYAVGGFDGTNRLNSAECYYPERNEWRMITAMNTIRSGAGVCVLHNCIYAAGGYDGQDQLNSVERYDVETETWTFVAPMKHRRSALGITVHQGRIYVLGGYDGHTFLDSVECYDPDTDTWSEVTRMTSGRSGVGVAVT

In test [4] the target is T3, Kelch-like ECH-associated protein 1 …. As to the kind of experiment: plate binding assay: immobilised Keap1, FLAG-tagged binder titrated, HRP anti-FLAG detection, 1:1 isotherm fit. As for the experimental part: (§1) Streptavidin Binding Assay. For the streptavidin binding assays, streptavidin-coated plates (Sigma-Aldrich) were used. For the Keap1, Shh and PD-L1 binding assay, target protein was immobilized on microtiter plates by incubating 100 μL of a 4 μM protein solution in PBS buffer overnight at 4° C., followed by decanting the protein solution and blocking with 0.5% bovine serum albumin in PBS for 2 h at room temperature. After washing (3×150 μL of PBS with 0.05% Tween-20), each well was incubated with 100 μL of purified FLAG-tagged cyclopeptibody at varying concentrations for 1 hour at room temperature. After washing three times with wash buffer, each well was incubated with 100 μL of 1:2500 dilution of HRP-conjugate mouse anti-FLAG polyclonal antibody (Sigma-Aldrich) for 1 hour at room temperature. After washing three times with wash buffer, 100 μL of 2.2 mM o-phenylenediamine dihydrochloride, 4.2 mM urea hydrogen peroxide, 100 mM dibasic sodium phosphate, and 50 mM sodium citrate, pH 5.0, were added to each well, followed by measurement of the absorbance at 450 nm after 10-20 min using a Tecan Infinite 1000 plate reader. Equilibrium dissociation constants (Kp) were determined by fitting the dose-response curves to a 1:1 binding isotherm equation via nonlinear regression. using SigmaPlot. Mean values and standard deviations were calculated from experiments performed in triplicate.

Test [5] has as its target Sonic Hedgehog (Shh) (human, UniProt Q15465 24-197, limits assumed). The test can be described thus: plate binding assay: immobilised Shh, FLAG-tagged binder titrated, HRP anti-FLAG detection.
In test [6] the target is T1, streptavidin. The test can be described thus: plate binding assay on streptavidin-coated plates.
The target of test [7] is T2, PD-L1 (Programmed Death-Ligand 1), …. The test can be described thus: plate binding assay: immobilised PD-L1, FLAG-tagged binder titrated, HRP anti-FLAG detection. As for the experimental part: as §1
Test [8] has the same target. As to the kind of experiment: competition assay: plate-immobilised PD-L1, competitor biotinylated PD-1 (500 nM), bound PD-1 read with HRP-streptavidin. As for the experimental part: as §1, with “After washing three times with wash buffer, each well was incubated with 100 μL of 1:2500 dilution of HRP-conjugate mouse anti-FLAG polyclonal antibody (Sigma-Aldrich) for 1 hour at room temperature.” left out
PD-L1 Competition Assay. […] After washing, the bound PD-1 was quantified by means of HRP-conjugate Streptavidin and colorimetric assay as described above. […]

Test [9] concerns the target T4, PD-L1 on the surface of MDA-MB-231 breast cancer cells (human, UniProt Q9NZQ7 19-290).
T4 construct: whole, on cells; also called PD-L1 receptor on the cancer cells
As to the kind of experiment: flow cytometry on MDA-MB-231 cells, 0.09 mg/ml, FITC anti-human IgG Fc secondary. As for the experimental part: The cells were then incubated with fluorescein-conjugated anti-human IgG Fc antibody and analyzed by flow cytometry. The same experiment was carried out in parallel using commercially available anti-PD-L1 antibody as positive control and various negative controls. […] Several applications for these compounds can be easily envisioned, including detection and/or staining of PD-L1 in vitro and in vivo (e.g., upon conjugation of the cyclopeptibody with a fluorescent dye, IR probe, or PET contrast agent), cell-targeted drug delivery (e.g., upon conjugation of the PD-L1-binding cyclopeptibody with a drug cargo), and use as therapeutic agents in cancer immunotherapy, among others.
For orientation: In flow cytometry, cells or beads pass a laser one at a time.

Starred links: 1 amine or outer side, 2 acyl side, 3 side chain; linkers in the order of their positions; H or OH if unused. Positions of bridges follow the written chain, without caps; N, C: chain ends. Non-standard residues stand in square brackets, D forms with d. Primed or numbered codes have the meaning given here. No end group written: not given here. O2beY = O-(2-bromoethyl)-tyrosine (p-2beF), reacts with Cys to form a thioether, O=C([C@H](Cc1ccc(OCCBr)cc1)N[*:1])[*:2]; pCaaF″ = p-(2-chloro-acetamido)-phenylalanine, thioether-linked to Cys, O=C(C[*:3])Nc1ccc(C[C@H](N[*:1])C(=O)[*:2])cc1; pCaaF = p-(2-chloroacetamido)-phenylalanine, O=C(CCl)Nc1ccc(C[C@H](N[*:1])C(=O)[*:2])cc1 Some results are limits rather than exact numbers.

T1 sequence (P22629 37-163 limits assumed): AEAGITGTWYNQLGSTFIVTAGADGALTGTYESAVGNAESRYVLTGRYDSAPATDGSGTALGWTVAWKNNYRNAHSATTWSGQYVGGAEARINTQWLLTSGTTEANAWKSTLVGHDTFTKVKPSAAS
T4 sequence (Q9NZQ7 19-290): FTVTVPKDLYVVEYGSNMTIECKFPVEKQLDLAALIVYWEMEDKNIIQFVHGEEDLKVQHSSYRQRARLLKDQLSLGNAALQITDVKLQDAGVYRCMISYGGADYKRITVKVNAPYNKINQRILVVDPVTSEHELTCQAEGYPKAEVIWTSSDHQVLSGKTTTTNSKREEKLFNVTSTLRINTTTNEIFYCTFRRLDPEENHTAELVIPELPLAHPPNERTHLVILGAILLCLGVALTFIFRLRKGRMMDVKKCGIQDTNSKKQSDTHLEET

For the molecule SCWWHPQGD[O2beY] (thioether 2-10; also: as CBD fusion) [cyclic peptide Strep-m3 alone (as CBD fusion)], in [1], the equilibrium dissociation constant (Kd) was found to be 50 nM.
As to WHFS[pCaaF″]NWRWLPC (thioether 5-12; not fully specified) [cyclic peptide cCLP003 (pCaaF)], in test [2], the Kd was roughly 10000 nM and the “fold higher affinity against the linear CLP003 peptide” value is roughly 40 fold.

B1: KKD-m1-Tras-Fc (Fc fusion)
chain: DYKDDDDKGSGS[O2beY]DSETGECQQQQQQ-{Fc-H6}
modifications: thioether 13-20; also: dimeric through the Fc
notes: Cyclic peptide fused through a (Gln)6 spacer to human IgG1 Fc; dimeric through the Fc; made in E. coli; also called FLAG-(GS)2-ZDSETGEC-(Q)6-(Fc)^1-H6
With B1, the “fold improved affinity against the same cyclic peptide fused to CBD” value in test [3] is greater than 20 fold. The molecule further registered a Kd in [4] of 4 nM.
TLSW[O2beY]EAMDMCTSS (thioether 5-11; also: as CBD fusion) [cyclic peptide L2-m5 alone (as CBD fusion)]: in test [5], binding was characterised by a dissociation constant (Kd) of 388 nM.

B2: FLAG-cRK10-Q12-Tras-Fc-His (Fc fusion)
chain: DYKDDDDKGSGSTYLCGAISLA[pCaaF]KAQIKESLQQQQQQQQQQQQ-{Fc-H6}
modifications: thioether 16-23
notes: Spacer variant of cRK10-Tras-Fc (Q12); also called FLAG-(GS)2-TYLCGAISLAZKAQIKESL-(Q)12-(Fc)^1-H6
As to B2, the Kd in test [2] amounted to 237 nM.

B3: FLAG-Strep-m3-Strep-m3-Tras-Fc-His (Fc fusion)
chain: DYKDDDDKGSGSSCWWHPQGD[O2beY]GSGSENLYFQGSGSSCWWHPQGD[O2beY]IEGRGSGS-{Fc-His}
modifications: thioether 14-22, 38-46; not fully specified; also: second O2beY at Y30, thioether-linked to Cys of its own cyclic peptide
notes: Two copies of the Strep-m3 cyclic peptide in tandem on each Fc chain; also called polyvalent streptavidin-targeting cyclopeptibody
Consider B3, for which binding in test [6] was put at a Kd of 56 nM.

B4: Strep-m3-Tras-Fc (Fc fusion)
chain: DYKDDDDKGSGSSCWWHPQGD[O2beY]QQQQQQ-{Fc-H6}
modifications: thioether 14-22; also: dimeric through the Fc
notes: Cyclic peptide fused through a (Gln)6 spacer to human IgG1 Fc; dimeric through the Fc; made in E. coli; also called FLAG-(GS)2-SCWWHPQGDZ-(Q)6-(Fc)^1-H6
In test [1], B4 returned a Kd of 37 nM. Besides, the “fold improved affinity against the same cyclic peptide fused to CBD” value in [6] came to 1.3 fold.
In the case of TYLCGAISLA[pCaaF]KAQIKESL (thioether 4-11) [cyclic peptide cRK10 (pCaaF)], the Kd in test [2] amounted to 13000 nM.
[O2beY]DSETGEC (thioether 1-8; also: as CBD fusion) [cyclic peptide KKD-m1 alone (as CBD fusion)] showed an equilibrium dissociation constant (Kd) in [4] of 85 nM.

B5: cCLP003 (pCaaF)-Tras-Fc (Fc fusion)
chain: DYKDDDDKGSGSWHFS[pCaaF]NWRWLPCQQQQQQ
modifications: thioether 17-24 (inferred); not fully specified (C-terminus)
notes: also called cCLP003-Tras-Fc; cCLP003-Tras-Fc-His
With B5, the dissociation constant (Kd) in [7] is roughly 250 nM. The “fold increase in affinity against the cyclic peptide alone” value in test [2] turned out to be 40 fold. Besides, the IC50 in [8] was 6000 nM. Moreover, in test [9], the “fold higher MFI against cRK10-Tras-Fc” value is 4 fold.

B6: cRK10 (pCaaF)-Tras-Fc (Fc fusion)
chain: DYKDDDDKGSGSTYLCGAISLA[pCaaF]KAQIKESLQQQQQQ-{Fc-H6}
modifications: thioether 16-23
notes: also called cRK10-Tras-Fc; RK10-Tras-Fc-His
With B6, in test [7], the Kd was found to be 40 nM. Besides, in [2], the dissociation constant (Kd) came out at 42 nM, the “fold higher PD-L1 binding affinity against FLAG-cRK10-Q12-Tras-Fc-His” value is 6 fold and the “fold higher binding affinity against the cyclic peptide cRK10” value was found to be 300 fold.

B7: FLAG-KKD-m1-KKD-m1-Tras-Fc-His (Fc fusion)
chain: DYKDDDDKGSGSYDSETGECGSGSENLYFQGSGSYDSETGECIEGRGSGS
modifications: thioether (positions not given here); not fully specified (residues 13, 35, C-terminus, bridges); also: two O2beY, each thioether-linked to Cys of its own cyclic peptide, places them at C20 and L27
notes: Two copies of the KKD-m1 cyclic peptide in tandem on each Fc chain; also called polyvalent Keap1-targeting cyclopeptibody
In turn, B7 came in with a Kd in test [3] of 45 nM.

The term Kd denotes the constant that tells how readily two partners part at equilibrium. For orientation: IC50 means the concentration that inhibits the measured activity by half.
